Assay results as given in US20030118612A1 (MAXYGEN, published 2003).

Target: T1, human G-CSF receptor (human, UniProt Q99062 25-836)
T1 sequence (looked up): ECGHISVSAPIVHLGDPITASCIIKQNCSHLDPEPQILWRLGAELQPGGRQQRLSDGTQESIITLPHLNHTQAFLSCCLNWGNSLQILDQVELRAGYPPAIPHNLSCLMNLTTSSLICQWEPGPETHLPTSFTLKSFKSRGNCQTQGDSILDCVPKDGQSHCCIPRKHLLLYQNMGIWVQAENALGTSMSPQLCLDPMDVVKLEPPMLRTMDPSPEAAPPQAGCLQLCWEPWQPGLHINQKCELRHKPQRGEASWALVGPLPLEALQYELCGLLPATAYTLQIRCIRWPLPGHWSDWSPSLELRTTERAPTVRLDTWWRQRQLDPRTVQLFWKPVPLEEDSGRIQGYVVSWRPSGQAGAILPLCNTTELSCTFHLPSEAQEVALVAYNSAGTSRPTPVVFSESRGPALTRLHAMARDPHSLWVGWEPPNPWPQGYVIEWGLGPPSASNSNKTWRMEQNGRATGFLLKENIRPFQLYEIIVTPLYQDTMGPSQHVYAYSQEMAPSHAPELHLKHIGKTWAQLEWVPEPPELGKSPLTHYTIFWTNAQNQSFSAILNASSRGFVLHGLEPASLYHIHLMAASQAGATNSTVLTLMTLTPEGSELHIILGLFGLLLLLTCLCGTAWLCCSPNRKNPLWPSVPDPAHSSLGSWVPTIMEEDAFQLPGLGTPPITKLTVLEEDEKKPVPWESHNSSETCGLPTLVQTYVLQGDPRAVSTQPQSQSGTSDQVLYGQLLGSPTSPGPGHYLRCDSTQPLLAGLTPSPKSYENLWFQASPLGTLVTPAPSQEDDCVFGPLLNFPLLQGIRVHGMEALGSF
Experiment: cell-based or functional assay

| Binder | EC50 (% of hG-CSF) conjugated to SPA-PEG 5000 | EC50 (% of hG-CSF) non-conjugated |
| --- | --- | --- |
| G-CSF variant K16/34/40R R147K conjugated to SPA-PEG 5000 (ligand, SPA-PEG 5000 conjugated to the available PEGylation sites) TPLGPASSLPQSFLLRCLEQVRKIQGDGAALQERLCATYRLCHPEELVLLGHSLGIPWAPLSSCPSQALQLAGCLSQLHSGLFLYQGLLQALEGISPELGPTLDTLQLDVADFATTIWQQMEELGMAPALQPTQGAMPAFASAFQRKAGGVLVASHLQSFLEVSYRVLRHLAQP | 1 % of hG-CSF | – |
| G-CSF variant K16/34/40R Q158, non-conjugated (ligand) TPLGPASSLPQSFLLRCLEQVRKIQGDGAALQERLCATYRLCHPEELVLLGHSLGIPWAPLSSCPSQALQLAGCLSQLHSGLFLYQGLLQALEGISPELGPTLDTLQLDVADFATTIWQQMEELGMAPALQPTQGAMPAFASAFQRRAGGVLVASHLKSFLEVSYRVLRHLAQP | – | 20 % of hG-CSF |
| G-CSF variant 16Q conjugated to SPA-PEG 5000 (ligand, SPA-PEG 5000 conjugated to the available PEGylation sites) TPLGPASSLPQSFLLQCLEQVRKIQGDGAALQEKLCATYKLCHPEELVLLGHSLGIPWAPLSSCPSQALQLAGCLSQLHSGLFLYQGLLQALEGISPELGPTLDTLQLDVADFATTIWQQMEELGMAPALQPTQGAMPAFASAFQRRAGGVLVASHLQSFLEVSYRVLRHLAQP | 1 % of hG-CSF | – |
| G-CSF variant K16/34/40R Q70K Q120K conjugated to SPA-PEG 5000 (ligand, SPA-PEG 5000 conjugated to the available PEGylation sites) TPLGPASSLPQSFLLRCLEQVRKIQGDGAALQERLCATYRLCHPEELVLLGHSLGIPWAPLSSCPSQALKLAGCLSQLHSGLFLYQGLLQALEGISPELGPTLDTLQLDVADFATTIWQKMEELGMAPALQPTQGAMPAFASAFQRRAGGVLVASHLQSFLEVSYRVLRHLAQP | 25 % of hG-CSF | – |
| G-CSF variant K16/34/40R T105K S159K conjugated to SPA-PEG 5000 (ligand, SPA-PEG 5000 conjugated to the available PEGylation sites) TPLGPASSLPQSFLLRCLEQVRKIQGDGAALQERLCATYRLCHPEELVLLGHSLGIPWAPLSSCPSQALQLAGCLSQLHSGLFLYQGLLQALEGISPELGPTLDKLQLDVADFATTIWQQMEELGMAPALQPTQGAMPAFASAFQRRAGGVLVASHLQKFLEVSYRVLRHLAQP | 20 % of hG-CSF | – |
| G-CSF variant K16/34/40R Q120K T133K, non-conjugated (ligand) TPLGPASSLPQSFLLRCLEQVRKIQGDGAALQERLCATYRLCHPEELVLLGHSLGIPWAPLSSCPSQALQLAGCLSQLHSGLFLYQGLLQALEGISPELGPTLDTLQLDVADFATTIWQKMEELGMAPALQPKQGAMPAFASAFQRRAGGVLVASHLQSFLEVSYRVLRHLAQP | – | 20 % of hG-CSF |
| G-CSF variant K16/34/40R T105K Q120K conjugated to SPA-PEG 5000 (ligand, SPA-PEG 5000 conjugated to the available PEGylation sites) TPLGPASSLPQSFLLRCLEQVRKIQGDGAALQERLCATYRLCHPEELVLLGHSLGIPWAPLSSCPSQALQLAGCLSQLHSGLFLYQGLLQALEGISPELGPTLDKLQLDVADFATTIWQKMEELGMAPALQPTQGAMPAFASAFQRRAGGVLVASHLQSFLEVSYRVLRHLAQP | 8 % of hG-CSF | – |
| G-CSF variant K16/34/40R Q70K Q90K conjugated to SPA-PEG 5000 (ligand, SPA-PEG 5000 conjugated to the available PEGylation sites) TPLGPASSLPQSFLLRCLEQVRKIQGDGAALQERLCATYRLCHPEELVLLGHSLGIPWAPLSSCPSQALKLAGCLSQLHSGLFLYQGLLKALEGISPELGPTLDTLQLDVADFATTIWQQMEELGMAPALQPTQGAMPAFASAFQRRAGGVLVASHLQSFLEVSYRVLRHLAQP | 20 % of hG-CSF | – |
| G-CSF variant K16/34/40R Q120K T133K conjugated to SPA-PEG 5000 (ligand, SPA-PEG 5000 conjugated to the available PEGylation sites) TPLGPASSLPQSFLLRCLEQVRKIQGDGAALQERLCATYRLCHPEELVLLGHSLGIPWAPLSSCPSQALQLAGCLSQLHSGLFLYQGLLQALEGISPELGPTLDTLQLDVADFATTIWQKMEELGMAPALQPKQGAMPAFASAFQRRAGGVLVASHLQSFLEVSYRVLRHLAQP | 8 % of hG-CSF | – |
| G-CSF variant K16/34/40R S159K conjugated to SPA-PEG 5000 (ligand, SPA-PEG 5000 conjugated to the available PEGylation sites) TPLGPASSLPQSFLLRCLEQVRKIQGDGAALQERLCATYRLCHPEELVLLGHSLGIPWAPLSSCPSQALQLAGCLSQLHSGLFLYQGLLQALEGISPELGPTLDTLQLDVADFATTIWQQMEELGMAPALQPTQGAMPAFASAFQRRAGGVLVASHLQKFLEVSYRVLRHLAQP | 3 % of hG-CSF | – |
| G-CSF variant K16/34/40R S155K, non-conjugated (ligand) TPLGPASSLPQSFLLRCLEQVRKIQGDGAALQERLCATYRLCHPEELVLLGHSLGIPWAPLSSCPSQALQLAGCLSQLHSGLFLYQGLLQALEGISPELGPTLDTLQLDVADFATTIWQQMEELGMAPALQPTQGAMPAFASAFQRRAGGVLVAKHLQSFLEVSYRVLRHLAQP | – | 20 % of hG-CSF |
| G-CSF variant K16/34/40R Q158 conjugated to SPA-PEG 5000 (ligand, SPA-PEG 5000 conjugated to the available PEGylation sites) TPLGPASSLPQSFLLRCLEQVRKIQGDGAALQERLCATYRLCHPEELVLLGHSLGIPWAPLSSCPSQALQLAGCLSQLHSGLFLYQGLLQALEGISPELGPTLDTLQLDVADFATTIWQQMEELGMAPALQPTQGAMPAFASAFQRRAGGVLVASHLKSFLEVSYRVLRHLAQP | 5 % of hG-CSF | – |
| G-CSF variant K16/34/40R S155K conjugated to SPA-PEG 5000 (ligand, SPA-PEG 5000 conjugated to the available PEGylation sites) TPLGPASSLPQSFLLRCLEQVRKIQGDGAALQERLCATYRLCHPEELVLLGHSLGIPWAPLSSCPSQALQLAGCLSQLHSGLFLYQGLLQALEGISPELGPTLDTLQLDVADFATTIWQQMEELGMAPALQPTQGAMPAFASAFQRRAGGVLVAKHLQSFLEVSYRVLRHLAQP | 1 % of hG-CSF | – |
| G-CSF variant K16/34/40R S159K, non-conjugated (ligand) TPLGPASSLPQSFLLRCLEQVRKIQGDGAALQERLCATYRLCHPEELVLLGHSLGIPWAPLSSCPSQALQLAGCLSQLHSGLFLYQGLLQALEGISPELGPTLDTLQLDVADFATTIWQQMEELGMAPALQPTQGAMPAFASAFQRRAGGVLVASHLQKFLEVSYRVLRHLAQP | – | 20 % of hG-CSF |
| G-CSF variant K16/34/40R Q90K T105K conjugated to SPA-PEG 5000 (ligand, SPA-PEG 5000 conjugated to the available PEGylation sites) TPLGPASSLPQSFLLRCLEQVRKIQGDGAALQERLCATYRLCHPEELVLLGHSLGIPWAPLSSCPSQALQLAGCLSQLHSGLFLYQGLLKALEGISPELGPTLDKLQLDVADFATTIWQQMEELGMAPALQPTQGAMPAFASAFQRRAGGVLVASHLQSFLEVSYRVLRHLAQP | 10 % of hG-CSF | – |
| G-CSF variant K16/34/40R T105K Q120K, non-conjugated (ligand) TPLGPASSLPQSFLLRCLEQVRKIQGDGAALQERLCATYRLCHPEELVLLGHSLGIPWAPLSSCPSQALQLAGCLSQLHSGLFLYQGLLQALEGISPELGPTLDKLQLDVADFATTIWQKMEELGMAPALQPTQGAMPAFASAFQRRAGGVLVASHLQSFLEVSYRVLRHLAQP | – | 20 % of hG-CSF |
| G-CSF variant K16/34/40R Q90K Q120K, non-conjugated (ligand) TPLGPASSLPQSFLLRCLEQVRKIQGDGAALQERLCATYRLCHPEELVLLGHSLGIPWAPLSSCPSQALQLAGCLSQLHSGLFLYQGLLKALEGISPELGPTLDTLQLDVADFATTIWQKMEELGMAPALQPTQGAMPAFASAFQRRAGGVLVASHLQSFLEVSYRVLRHLAQP | – | 25 % of hG-CSF |
| G-CSF variant K16/34/40R Q90K Q120K conjugated to SPA-PEG 5000 (ligand, SPA-PEG 5000 conjugated to the available PEGylation sites) TPLGPASSLPQSFLLRCLEQVRKIQGDGAALQERLCATYRLCHPEELVLLGHSLGIPWAPLSSCPSQALQLAGCLSQLHSGLFLYQGLLKALEGISPELGPTLDTLQLDVADFATTIWQKMEELGMAPALQPTQGAMPAFASAFQRRAGGVLVASHLQSFLEVSYRVLRHLAQP | 15 % of hG-CSF | – |
| G-CSF variant K16/34/40R T105K S159K, non-conjugated (ligand) TPLGPASSLPQSFLLRCLEQVRKIQGDGAALQERLCATYRLCHPEELVLLGHSLGIPWAPLSSCPSQALQLAGCLSQLHSGLFLYQGLLQALEGISPELGPTLDKLQLDVADFATTIWQQMEELGMAPALQPTQGAMPAFASAFQRRAGGVLVASHLQKFLEVSYRVLRHLAQP | – | 40 % of hG-CSF |
| G-CSF variant 23Q, non-conjugated (ligand) TPLGPASSLPQSFLLKCLEQVRQIQGDGAALQEKLCATYKLCHPEELVLLGHSLGIPWAPLSSCPSQALQLAGCLSQLHSGLFLYQGLLQALEGISPELGPTLDTLQLDVADFATTIWQQMEELGMAPALQPTQGAMPAFASAFQRRAGGVLVASHLQSFLEVSYRVLRHLAQP | – | 80 % of hG-CSF |
| G-CSF variant K16/34/40R Q70K Q120K, non-conjugated (ligand) TPLGPASSLPQSFLLRCLEQVRKIQGDGAALQERLCATYRLCHPEELVLLGHSLGIPWAPLSSCPSQALKLAGCLSQLHSGLFLYQGLLQALEGISPELGPTLDTLQLDVADFATTIWQKMEELGMAPALQPTQGAMPAFASAFQRRAGGVLVASHLQSFLEVSYRVLRHLAQP | – | 25 % of hG-CSF |
| G-CSF variant K16/34/40R Q90K T105K, non-conjugated (ligand) TPLGPASSLPQSFLLRCLEQVRKIQGDGAALQERLCATYRLCHPEELVLLGHSLGIPWAPLSSCPSQALQLAGCLSQLHSGLFLYQGLLKALEGISPELGPTLDKLQLDVADFATTIWQQMEELGMAPALQPTQGAMPAFASAFQRRAGGVLVASHLQSFLEVSYRVLRHLAQP | – | 40 % of hG-CSF |
| G-CSF variant K16/34/40R Q90K S159K, non-conjugated (ligand) TPLGPASSLPQSFLLRCLEQVRKIQGDGAALQERLCATYRLCHPEELVLLGHSLGIPWAPLSSCPSQALQLAGCLSQLHSGLFLYQGLLKALEGISPELGPTLDTLQLDVADFATTIWQQMEELGMAPALQPTQGAMPAFASAFQRRAGGVLVASHLQKFLEVSYRVLRHLAQP | – | 45 % of hG-CSF |
